Reference: the supplement of paper PMC9170038

Legend:
[1] = test system: MS2 coat protein; assay: apparent KD of MS2 coat protein, switch OFF state (with FMN for OFF switches, without FMN for ON switches); designed switch direction (-1 OFF switch, 1 ON switch): -1; higher = weaker reporter binding; settings: FMN input: 0 or 200 uM; Eterna round: R93 (includes R88 designs)
Method in brief: (§1)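 The buffer was 100 mM Tris-HCl pH 7.5 with 80 mM KCl and 4 mM MgCl2, used without or with constant ligand. In it, RNA switches transcribed on-chip from Illumina sequencing clusters were titrated with SNAP-549-labelled MS2 coat protein in twofold steps from 0.7 or 1.5 nM to 3 µM. Apparent KD for each design is the median of its normalised cluster binding-curve fits.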

[2] = test system: MS2 coat protein; assay: apparent KD of MS2 coat protein, switch ON state; designed switch direction (-1 OFF switch, 1 ON switch): -1; higher = weaker reporter binding; settings: FMN input: 0 or 200 uM; Eterna round: R93 (includes R88 designs)
Method in brief: as §1

Sequence | apparent KD of MS2 coat protein [1] [nM] | apparent KD of MS2 coat protein [2] [nM]
AAAAAGGUAGGAUAUACAUGAGGAUCACCCAUGUACAUAAAUGGAGAAAAAAACAGUUGUAGAAGGGCCAAAAA [Ex3 Malc#9] | 34.5 | 41.7
AAAAAGGUAGGAUAUACAUGAGGAUCACCCAUGUCGCGGCGCGCGGACAGCCCGCCCUGUAGAAGGACCAAAAA [Default title] | 28.6 | 35
AAAAAGUCAGGAUAUGUGGAAAAAAUAAAAAAAAUAAAAACACAGAAGGGACAUGAGGAUCACCCAUGUUAAAA [Ex 4 May 18] | 35.1 | 45.4
AAAAAGUGAGGAUAUACGCUGAGGAGUAGACACAACCUGGCGUAGAAGGCACAUGAGGAUCACCCAUGUCCAAA [EX4 Malc#12] | 41.5 | 24.3
AAAAAGUGAGGAUAUCGGAAAAAAAAAAAAAAAAAAAAAAACGAGAAGGCACAUGAGGAUCACCCAUGUAAAAA [all GC all the time + G boost - take 2] | 45.6 | 42.2
AAAAAGUGAGGAUAUUCGGAUAGGAAAACGAAAACCUAUCCGAAGAAGGCACAUGAGGAUCACCCAUGUAAAGA [Mat - Exaclusion 4 - Eli mod - D40] | 40.2 | 30.8
AAAAAUGGAGGAUAUACAUGAGGAUCACCCAUGUGAAACAAAAAAAAAAACAAAAAAAGUAGAAGGCCAAAAAA [Gilly Gone Silly 2 - Jieux - Exclusion 3] | 53.6 | 36.7
AAAACACAUGAGGAUCACCCAUGUGAGGAUAUGCAAAACCCAUAUAAAAAGGGAAAAAGCAGAAGGCACAAAAA [wbt round 1 mod 12] | 27.8 | 22.4
AAAACACAUGAGGAUCACCCAUGUGAGGAUAUGCUAGUGAAAAUAAAAAUAAAACAUAGCAGAAGGCACAAGGA [Amethyst 79] | 45.8 | 43.7
AAAAUGUCAGGAUAUUCGGAUAGGAAAACGAAAACCUAUCCGAAGAAGGGACAUGAGGAUCACCCAUGUAAAAA [Starry Exclusion 4.2 (cataway round 1 mod)] | 341 | 81.4
AAAAUGUGAGGAUAUGUACGAAAAAAUAAAAAAAUAAAAGUACAGAAGGCACAUGAGGAUCACCCAUGUGAAAA [EX4 396: Minimal 9] | 79.1 | 28.3
AAACGUAGAGGAUAUACAGGGCUAUUACGAAAGUAAUAGAAACAUGAGGAUCACCCAUGUAGAAGGCUACGAAA [Mod2 of Meechl 64% 1] | 67.9 | 162
AAACUACUAGGAUAUACAACGGUGUCCUAACUACUAAGAAAACAUGAGGAUCACCCAUGUAGAAGGAGUAGUGA [Lauslabe] | 30.2 | 33.6
AAAGAUGGAGGAUAUACAUGAGGAUCACCCAUGUGGAAUCUAAAAUGGGAAAAAGAAAGUAGAAGGCCAUAAAA [Ex 3 May 40] | 83.1 | 36.7
AAAGAUUGAGGAUAUACAUGAGGAUCACCCAUGUAAAAAAAAAAAAGGGUGGAAGAAAGUAGAAGGCAACAAAA [Ex 3 May 46] | 284 | 80.6
AAAGCUGAAGGAUAUACUUGGAAAAAAAAAAAAAAAAAAAAACAUGAGGAUCACCCAUGUAGAAGGUCAGAUAA [Mat - Mod] | 36.7 | 41.1
AAAGGGUCAGGAUAUCGAUGAAUAAUAAAACAAAGGAACAUCGAGAAGGGACAUGAGGAUCACCCAUGUAUAAC [May 80] | 48.4 | 42.4
AAAUAGUUAGGAUAUACAUGAGGAUCACCCAUGUGGACUGAUGUCGCGUGAUUCAGUGGUAGAAGGGACUCAAA [EX2 Malc#36] | 75 | 47.3
AAAUAGUUAGGAUAUACAUGAGGAUCACCCAUGUGGACUUAUGGAGAAUAGUCUAAUGGUAGAAGGGACUAAAA [EX2 Malc#24] | 45.8 | 69.8
